B1: TGase from S. mobaraense (wild type) (protein)
chain: DSDDRVTPPAEPLDRMPDPYRPSYGRAETVVNNYIRKWQQVYSHRDGRKQQMTEEQREWLSYGCVGVTWVNSGQYPTNRLAFASFDEDRFKNELKNGRPRSGETRAEFEGRVAKESFDEEKGFQRAREVASVMNRALENAHDESAYLDNLKKELANGNDALRNEDARSPFYSALRNTPSFKERNGGNHDPSRMKAVIYSKHFWSGQDRSSSADKRKYGDPDAFRPAPGTGLVDMSRDRNIPRSPTSPGEGFVNFDYGWFGAQTEADADKTVWTHGNHYHAPNGSLGAMHVYESKFRNWSEGYSDFDRGAYVITFIPKSWNTAPDKVKQGWP
Sequence of hGH mutant Q141N, P01241 (P01241 27-217 Q167N): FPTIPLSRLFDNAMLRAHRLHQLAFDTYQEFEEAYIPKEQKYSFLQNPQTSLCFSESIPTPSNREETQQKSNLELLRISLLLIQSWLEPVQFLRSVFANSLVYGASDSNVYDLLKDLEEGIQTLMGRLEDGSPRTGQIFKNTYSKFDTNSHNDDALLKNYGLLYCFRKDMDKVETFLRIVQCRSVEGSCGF
Sequence of hGH mutant Q40N, P01241 (P01241 27-217 Q66N): as the sequence (P01241 27-217 Q167N) above, with Q40N, N141Q counted along it
For B1, the “HPLC peak area of product-Q40” value (hGH mutant Q141N, P01241) was “The first peak (19.5 min, area 296) is product-Q40”, the Q141N (remaining substrate, normalized to 100) (normalized peak area (sum 100)) (hGH mutant Q141N, P01241) was 81 and the product-Q40 (normalized to 100) (normalized peak area (sum 100)) (hGH mutant Q141N, P01241) was 19. For the same protein, the “HPLC peak area of product-Q141” value (hGH mutant Q40N, P01241) was “The first peak (26.9 min, area 1283) is product-Q141”, the Q40N (remaining substrate, normalized to 100) (normalized peak area (sum 100)) (hGH mutant Q40N, P01241) was 29 and the product-Q141 (normalized to 100) (normalized peak area (sum 100)) (hGH mutant Q40N, P01241) was 71.

B2: TGase from Streptoverticillium ladakanum (protein)
chain: DSDERVTPPAEPLDRMPDPYRPSYGRAETIVNNYIRKWQQVYSHRDGRKQQMTEEQREWLSYGCVGVTWVNSGQYPTNRLAFAFFDEDKYKNELKNGRPRSGETRAEFEGRVAKDSFDEAKGFQRARDVASVMNKALENAHDEGAYLDNLKKELANGNDALRNEDARSPFYSALRNTPSFKDRNGGNHDPSKMKAVIYSKHFWSGQDRSGSSDKRKYGDPEAFRPDRGTGLVDMSRDRNIPRSPTSPGESFVNFDYGWFGAQTEADADKTVWTHGNHYHAPNGSLGAMHVYESKFRNWSDGYSDFDRGAYVVTFVPKSWNTAPDKVKQGWP
In the case of B2, the “HPLC peak area of product-Q40” value (hGH mutant Q141N, P01241) is reported as “The first peak (19.2 min, area 127) is product-Q40”, the Q141N (remaining substrate, normalized to 100) (normalized peak area (sum 100)) (hGH mutant Q141N, P01241) is reported as 90 and the product-Q40 (normalized to 100) (normalized peak area (sum 100)) (hGH mutant Q141N, P01241) is reported as 10. For the same protein, the “HPLC peak area of product-Q141” value (hGH mutant Q40N, P01241) was “The first peak (26.5 min, area 1238) is product-Q141”, the Q40N (remaining substrate, normalized to 100) (normalized peak area (sum 100)) (hGH mutant Q40N, P01241) was 23 and the product-Q141 (normalized to 100) (normalized peak area (sum 100)) (hGH mutant Q40N, P01241) was 77.
